# According to PMC10659949 (Protein Science : A Publication of the Protein Society, 2023):
# B1: Fab TPL0197_01_C08 (Fab, V domains shown)
# VH: EVQLVQSGAEVKKPGASVKVSCKASGYTFTSYGISWVRQAPGQGLEWMGWISAYNGNTNYAQKLQGRVTMTTDTSTSTAYMELRSLRSDDTAVYYCAREEYCSSTSCYVGNYYGMDVWGQGTLVTVSS
# VL: DIQMTQSPSSLSASVGDRVTITCQASQDISNYLNWYQQKPGKAPKLLIYAASSLESGVPSRFSGSGSGTEFTLTITNLQVDDFATYYCQRYDSNFAFGQGTKVEIK
# notes: also called Fab C08; source: ExpiCHO cells, purified (Ni-NTA / HisTrap Excel, desalting)
# Tests used:
# Details in all cases: both partners purified
# [1] = target: T1, biotinylated α-bungarotoxin from Bungarus multicinctus (Bungarus multicinctus, UniProt P60615); assay: BLI
# T1 construct: source: bought: Latoxan (purified, from B. multicinctus), then biotinylated
# [2] = target: T2, biotinylated α-cobratoxin from Naja kaouthia (Naja kaouthia, UniProt P01391, biotin (1:1.25 toxin: biotin reagent molar ratio; site not stated)); assay: BLI; […]; dissociation in HEPES-MES pH 5.5; 1:1 binding model, global fit; […]
# T2 construct: source: bought: Latoxan (purified, from N. kaouthia), then biotinylated
# [3] = target: T2, biotinylated α-cobratoxin from Naja …; assay: BLI; […]) in HEPES-MES buffer pH 7.4; dissociation in HEPES-MES pH 7.4; 1:1 binding model, global fit; […]
# T2 sequence (P01391 whole entry): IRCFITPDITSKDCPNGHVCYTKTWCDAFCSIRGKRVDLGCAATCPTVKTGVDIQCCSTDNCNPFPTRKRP
# T1 sequence (P60615 22-95): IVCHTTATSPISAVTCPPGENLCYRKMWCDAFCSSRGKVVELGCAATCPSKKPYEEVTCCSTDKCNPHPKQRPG
binder,measurement,setting,value
B1,binding result,[1],no binding (tested: 300 nM)
same,koff,[2],0.00535 s⁻¹
same,Kd,[3],44.8 nM
same,koff,[3],0.00076 s⁻¹
